Molecular target: T1, SARS-CoV-2 replicase polyprotein 1ab (CoV-YL8; identical in HKU1 and NL63) peptide on HLA-B*35:03 (human)
T1 peptide: YPDPSRIL
Assay: cytokine release

B1: CoV-YL8 TCR (TCR)
alpha TRAV1-1 TRAJ4 CDR3: CAVRGISGGYNKLIF
beta TRBV19 TRBJ1-6 CDR3: CASSIEGSYNSPLHF
  binding result: recognises

Reference: article PMC11872457 (2025)
